Results from patent US20190169308A1 (ALLIGATOR BIOSCIENCE, published 2019).

Experiments:
[1] = target: T1, 5T4-Fc (human, UniProt Q13641 32-355, limits assumed); assay: ELISA, coated 5T4-Fc
T1 construct: obtained from Peter L. Stern, University of Manchester; also called h5T4-Fc; recombinant 5T4
T1 sequence (looked up): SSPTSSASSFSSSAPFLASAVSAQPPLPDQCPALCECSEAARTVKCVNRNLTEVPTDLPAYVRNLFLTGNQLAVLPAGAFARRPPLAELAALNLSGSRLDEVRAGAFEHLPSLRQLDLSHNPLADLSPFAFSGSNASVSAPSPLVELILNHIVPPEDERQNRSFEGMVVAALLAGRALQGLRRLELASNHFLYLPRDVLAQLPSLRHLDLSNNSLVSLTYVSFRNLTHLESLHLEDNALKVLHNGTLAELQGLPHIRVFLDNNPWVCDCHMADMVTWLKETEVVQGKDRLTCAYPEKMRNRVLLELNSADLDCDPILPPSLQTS
Experimental: ELISA was performed using a standard protocol. Plates (#655074, Greiner Bio-One GmbH, Germany) were pre-coated with 0.5 μg/ml 5T4-Fc (obtained from Peter L. Stern, University of Manchester) overnight. 5T4 antibodies were diluted from 6 to 1.5×10⁻³ μg/ml in 1:4 dilutions and added in duplicates of 50 μl to each well. Binding was detected with rabbit anti-h kappa L-chain-HRP (P0129, Dako Denmark) and the ELISA was developed with SuperSignal ELISA PICO Chemiluminescent substrate (Thermo Scientific Pierce, Rockford, Ill. USA) for 2-10 minutes and read in an automated microplate based multi-detection reader (FLUOstar OPTIMA, Netherlands).

[2] = target: T2, mouse 5T4 on transfected cells (mouse, UniProt Q9Z0L0 32-426); assay: flow cytometry, mouse 5T4-transfected cells
T2 construct: whole, on cells; also called murine 5T4
T2 sequence (looked up): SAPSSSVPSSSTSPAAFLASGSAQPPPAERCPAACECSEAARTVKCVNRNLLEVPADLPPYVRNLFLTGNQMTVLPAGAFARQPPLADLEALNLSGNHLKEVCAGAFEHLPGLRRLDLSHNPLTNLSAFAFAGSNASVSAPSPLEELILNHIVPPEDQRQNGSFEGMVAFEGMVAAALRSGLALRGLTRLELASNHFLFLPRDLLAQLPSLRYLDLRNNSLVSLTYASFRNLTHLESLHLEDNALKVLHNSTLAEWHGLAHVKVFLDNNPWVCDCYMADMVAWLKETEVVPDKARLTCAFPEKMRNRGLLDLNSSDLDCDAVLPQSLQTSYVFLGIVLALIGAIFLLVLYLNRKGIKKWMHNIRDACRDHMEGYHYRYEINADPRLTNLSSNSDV

[3] = target: T3, human 5T4 on transfected cells (human, UniProt Q13641 32-420); assay: flow cytometry, 5T4-transfected B16 cells
T3 construct: whole, on cells; also called B16-5T4; CHOh5T4
T3 sequence (looked up): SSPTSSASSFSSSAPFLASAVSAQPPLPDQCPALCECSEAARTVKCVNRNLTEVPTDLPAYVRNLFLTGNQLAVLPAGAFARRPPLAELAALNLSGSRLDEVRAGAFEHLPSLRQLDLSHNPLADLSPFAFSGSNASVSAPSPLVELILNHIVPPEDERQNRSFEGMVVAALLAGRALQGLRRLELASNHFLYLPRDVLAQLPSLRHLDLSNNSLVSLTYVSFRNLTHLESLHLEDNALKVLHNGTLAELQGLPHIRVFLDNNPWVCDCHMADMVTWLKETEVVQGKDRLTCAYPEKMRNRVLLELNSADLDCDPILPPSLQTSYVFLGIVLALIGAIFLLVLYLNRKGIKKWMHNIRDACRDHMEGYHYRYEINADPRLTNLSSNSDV

[4] = target: T4, cynomolgus 5T4 on transfected CHO cells (Macaca mulatta (cynomolgus), UniProt F7CT46 35-420); assay: flow cytometry, 5T4-transfected CHO cells
T4 construct: also called cyno5T4; cy5T4
T4 sequence: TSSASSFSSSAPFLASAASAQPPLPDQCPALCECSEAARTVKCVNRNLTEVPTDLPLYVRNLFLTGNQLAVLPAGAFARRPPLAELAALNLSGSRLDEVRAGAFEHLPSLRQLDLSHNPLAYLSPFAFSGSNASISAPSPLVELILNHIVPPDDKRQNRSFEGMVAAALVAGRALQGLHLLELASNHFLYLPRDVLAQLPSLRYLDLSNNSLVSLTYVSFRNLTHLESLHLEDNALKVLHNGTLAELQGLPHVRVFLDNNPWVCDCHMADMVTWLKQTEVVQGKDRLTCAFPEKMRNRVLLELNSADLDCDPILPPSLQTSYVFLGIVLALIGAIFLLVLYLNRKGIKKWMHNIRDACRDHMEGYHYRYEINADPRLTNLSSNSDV
Experimental: (§1) The potency of 5T4 antibodies in binding to cynomolgus 5T4 was determined by flow cytometry. CHO cells were stably transfected with […] (cynomolgus) 5T4. […] Samples were analysed either on a FACSCalibur or a FACSverse (BD Biosciences, Heidelberg, Germany) and mean fluorescence intensity (MFI) determined. […] To compare the EC50 values between human and cynomolgus 5T4, the cy5T4/hu5T4 ratio was calculated from the experiment with the full dose-response.

[5] = target: T3, human 5T4 on transfected cells; assay: flow cytometry, human 5T4-transfected CHO cells
Experimental: Analysis of 5T4 mAb binding with flow cytometry was performed using 5T4-transfected cell lines and as negative control, mock transfected cells. Three different transfected cell lines used were used for this study; B16, A9 and CHO, transfected either with a 5T4 construct or with an empty vector control construct. Cells were stained with 5T4 antibodies diluted in FACS buffer (PBS, 0.5% BSA and 0.02% NaN₃). […] Samples were analysed either on a FACSCalibur or a FACSverse (BD Biosciences, Heidelberg, Germany) and mean fluorescence intensity (MFI) determined.
In a new attempt to calculate EC50 with flow cytometry a 5T4 mAb dose response experiment was performed using CHO cells stably transfected with human 5T4.

[6] = target: T4, cynomolgus 5T4 on transfected CHO cells; assay: flow cytometry, cynomolgus 5T4-transfected CHO cells
Experimental: as §1

[7] = target: T5, 5T4 (SPR antigen) (UniProt Q13641 32-355, limits assumed, biotinylated on the MASS-1 platform); assay: SPR MASS-1, biotinylated 5T4 on streptavidin chip, mAb injected (bivalent)
T5 construct: also called biotinylated 5T4
T5 sequence (looked up): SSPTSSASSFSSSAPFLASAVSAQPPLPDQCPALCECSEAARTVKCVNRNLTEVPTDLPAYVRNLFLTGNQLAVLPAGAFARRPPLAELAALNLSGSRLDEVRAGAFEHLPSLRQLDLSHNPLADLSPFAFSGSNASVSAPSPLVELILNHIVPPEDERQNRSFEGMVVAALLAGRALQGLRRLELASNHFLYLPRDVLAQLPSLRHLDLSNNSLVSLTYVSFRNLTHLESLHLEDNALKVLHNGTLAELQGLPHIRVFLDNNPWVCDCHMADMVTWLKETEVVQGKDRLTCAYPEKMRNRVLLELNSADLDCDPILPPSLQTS
Experimental: Binding kinetics of the 5T4-specific mAbs have been studied using two different SPR-based platforms, the Biacore 3000 (GE Healthcare) and the MASS-1 platform (Sierra Sensors). Briefly, 5T4 was captured at the sensor chip surface either via direct amine coupling (Biacore platform) or using a streptavidin coated chip and biotinylated 5T4 (MASS-1 platform). The different 5T4-specific mAbs were then injected over the chip in increasing concentrations and the association and dissociation rates studied in real time. A 1:1 Langmuir model was used for curve fitting.

B1: 1210/1211 (antibody, V domains shown)
VH: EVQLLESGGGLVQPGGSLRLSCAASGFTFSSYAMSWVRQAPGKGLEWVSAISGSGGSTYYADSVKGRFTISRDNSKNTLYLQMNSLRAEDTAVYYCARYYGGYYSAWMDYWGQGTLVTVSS
VL: DIQMTQSPSSLSASVGDRVTITCRASQSISSYLNWYQQKPGKAPKLLIYAASSLQSGVPSRFSGSGSGTDFTLTISSLQPEDFATYYCQQTYGYLHTFGQGTKLEIK
[1]
  EC50: 0.48 nM
[2]
  binding result: no binding
[3]
  EC50: 0.8 nM
[4]
  Ratio EC50cyno5T4/h5T4: 0.9
[5]
  EC50: 0.81 nM
[6]
  EC50: 0.7 nM
[7]
  koff: 0.00019 s⁻¹
  kon: 510000 M⁻¹ s⁻¹

B2: 1206/1207 (antibody, V domains shown)
VH: EVQLLESGGGLVQPGGSLRLSCAASGFTFSGSSMSWVRQAPGKGLEWVSSIYYSGSGTYYADSVKGRFTISRDNSKNTLYLQMNSLRAEDTAVYYCARYGRNVHPYNLDYWGQGTLVTVSS
VL: DIQMTQSPSSLSASVGDRVTITCRASQSISSYLNWYQQKPGKAPKLLIYAASSLQSGVPSRFSGSGSGTDFTLTISSLQPEDFATYYCQQGYYYLPTFGQGTKLEIK
[1]
  EC50: 0.64 nM
[2]
  binding result: no binding
[3]
  EC50: 1.8 nM
[4]
  Ratio EC50cyno5T4/h5T4: 3
[5]
  EC50: 0.51 nM
[6]
  EC50: 1.53 nM
[7]
  koff: 0.00013 s⁻¹
  kon: 1.4e+06 M⁻¹ s⁻¹
